The values that follow come from the nanobody polyreactivity screen of Harvey et al. (2022).

This data set can be described thus: yeast display, Sf9 membrane polyspecificity reagent, FACS + sequencing; frameworks hold sequencing errors. In a few lines:
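Nanobodies came from a synthetic yeast display library in Saccharomyces cerevisiae BJ5465, induced with galactose for 36–48 hours and stained for 1 hour at 4 °C with 10% biotinylated, detergent-solubilized Sf9 membrane reagent. Cells were enriched on streptavidin microbeads and then FACS-sorted, with low and high (top ~1%) gates set on anti-HA fluorescence for expression and streptavidin fluorescence for reagent binding. Each polyreactivity label reflects the gate a clone came from. Genes were amplified by colony PCR, sequenced by MiSeq 2 × 250 and filtered by CDR length.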
As to “QVQLVESGGGLVQEGGILRLICAASGIIFPIYAMGWYRQAPGKERELVAAISQSGASTYYADSVKGRFTISRDNAKNTVYLALNSLKPEDTAVYYCAALNGDGPWQLSSEEFVYWGQGTQVTVSS”, the “polyreactivity (PSR sort gate)” value is given as “low polyreactivity”.

Regarding “QVQLVESGGGLVQEGGRLRLSCAASGRIFWDNDMGWYRQAPGKERELVAAISRRGGSTSYADSVKGRFTISRDNAKNTVYLQMNSLKPEDTAVFYCNVRTRWTRVRRYDYWGQVTQVTVSS”, the “polyreactivity (PSR sort gate)” value was “high polyreactivity”.

As to “QVQLVESGGGLVQEGGSLRISCAASGRTFIGYTIGWYRQAPRKERELFAAITWNGGRTYYADSVKGRFTISRDNAKNTVYLQMNSLKPEVTAVYYCAAPRRVVIGGGDYWGQGTQVTVSS”, the “polyreactivity (PSR sort gate)” value is reported as “high polyreactivity”.

Regarding “QVQLVESGGGLVQEGGSLRLICAASGRTVNTNALGLYRQAPGKEREFVAAISRSGGSTRYADSVKGRFTISRDNAKNTVYLQLNSLKPEDTAVYYCAAVRFRPRGNEYWGQGTQVTVSS”, the “polyreactivity (PSR sort gate)” value was “high polyreactivity”.

For the sequence “QVQLVESGGGLVQEGGSLRLICAASGSTFWANAMGWYRQEPGKERELVAAISVRGGNTYYADSVKGRFTISRDNAKNTVYLQMNSLKAEVTAVYYCAARPISWTSYYDYWGQGTQVTVSS”, the “polyreactivity (PSR sort gate)” value is listed as “high polyreactivity”.

Consider “QVQLVESGGGLVQEGGSLRLNCAASGRTFFRNTMGWYRQAPRKDSELFATISSSGGSTYYADSVKGLFTISRDTAKNTVYLQMNSLKPEDTAVYYCAAAPSKWYYGYGYWGQGTQVTVSS”, for which the “polyreactivity (PSR sort gate)” value is “high polyreactivity”.

“QVQLVESGGGLVQEGGSLRLSCAACGRTFSWYAMGWYRQAPGKDRELVAAITSGGSTYYADSVKGRFTISRDNAMNTVYLQMNSLKPEDTAVYYCAAQAYVEGVYRYDYWGQGTQVTVSS”: the “polyreactivity (PSR sort gate)” value is “low polyreactivity”.

In the case of “QVQLVESGGGLVQEGGSLRLSCAASGFTFRYYTMGWYRQATGKERELVATITWSGGGTYYADSVKGRFTISRDNAKNTVYLQRISLKPVDSAVYYCTAGLFYKAQYGYWGKGTQVTVSS”, the “polyreactivity (PSR sort gate)” value is given as “high polyreactivity”.

Turning to “QVQLVESGGGLVQEGGSLRLSCAASGFTFSLNTMGWYRQAPGKERELVAAINSGDSTYADSVKGRFTISRDNAKNTVYLQMNSLKPEDTAVYYCNADPDWWYPYNYWGQGTQVTVSS”, the “polyreactivity (PSR sort gate)” value is on record as “low polyreactivity”.

“QVQLVESGGGLVQEGGSLRLSCAASGIIFLWYTMGWYRQAPGKERELVATISWAGGSTYADSVKGRFTISRDNAKNTVYLPMNSLKPEDTAVYYCNTEIYVDIISDYGYWGQGTQVTVSS”: the “polyreactivity (PSR sort gate)” value was “low polyreactivity”.

Regarding “QVQLVESGGGLVQEGGSLRLSCAASGITFGSYAMGWYRQAPGKERELVAAIDTSGDDTYYADSVKGRFTISRDNAKYTVYLQMNSLKPEDTAVYYCAADFPSAEVDYWGQGTQVTVSS”, the “polyreactivity (PSR sort gate)” value is “low polyreactivity”.

Take “QVQLVESGGGLVQEGGSLRLSCAASGITFGTNAMGWYRQAPGKERELVAAIRRDGSTYYADSVKGRFTISRDNAKNTVYLQMNSLKPEDTAVYYCAATYWGRAYQGYRNLLYGYWGQGTQVTVSS”: the “polyreactivity (PSR sort gate)” value is “high polyreactivity”.

In the case of “QVQLVESGGGLVQEGGSLRLSCAASGRIFYSNAMGWYRQAPGKERENVAAISWSGGGTYYADSVKGRFTISRDNAKNTVYLQMNSLKPEDTAVYYCAAVFGYSWAFEYDYWGQGTQVTVSS”, the “polyreactivity (PSR sort gate)” value was “low polyreactivity”.

In the case of “QVQLVESGGGLVQEGGSLRLSCAASGRILYGYAMGWYRQAPGKERELVASITSSGGSKYADSVKGRFTISRDNAKNTVYLQMNSLKPEDTAVYYGATRRGPKWQWLTYGYWGQGTQVTVSS”, the “polyreactivity (PSR sort gate)” value was “low polyreactivity”.

Take “QVQLVESGGGLVQEGGSLRLSCAASGRISYIYAMGWYRQAQGKERELVAAITRGGSTNYADSVKGCFTISRDNAKNTVYLQMNSLKPEDTAVYYCAARRRRSGGYEYDYWGQGTQVTVSS”: the “polyreactivity (PSR sort gate)” value is listed as “high polyreactivity”.

On to “QVQLVESGGGLVQEGGSLRLSCAASGRTFAYNVKGRYRQAPGKVRELVAGISFGAGSTYYADSVKGRFTISRDNAKNTVYLHMNSLKPEDTAVYYCATRRRGTRYPRGYDYWGQGTQVTVSS”, for which the “polyreactivity (PSR sort gate)” value is “high polyreactivity”.

In the case of “QVQLVESGGGLVQEGGSLRLSCAASGRTFDSYTMGWYRPAPGKQRELVADITFTGGSTYYADTVKGRFTISRDNAKYIVFLQMNSLKPEDTAVYYCNADREYKWYFRYDYWGQGTQVNVSS”, the “polyreactivity (PSR sort gate)” value is “low polyreactivity”.

As for “QVQLVESGGGLVQEGGSLRLSCAASGRTFSYNAMGWYSQAPGKERELFAAITGRGGSTYYADSVKGRFTISRDNAKKTVYLQMNRLKPEVTAVYYCNAVDAGYHRDRDYWGLGTQVTVSS”, the “polyreactivity (PSR sort gate)” value is recorded as “low polyreactivity”.

Turning to “QVQLVESGGGLVQEGGSLRLSCAASGRTFYRNAMGWYRQAPGKERELVAAISSDDSTNYADSVKGRFTISRDNAKNTVYLQMNSLKPEDTAVYYCNADYYYGYEYDYWGQGSQVTVSS”, the “polyreactivity (PSR sort gate)” value was “low polyreactivity”.

For “QVQLVESGGGLVQEGGSLRLSCAASGRTFYTNAMGWYRPAPGKERELVAVISRGGTTFYADSVKGRFTISRDNAKNTVYLQMNSLKPEDTAVYYCAKQRPSGDSSSQMGSWGQGTQVTVSS”, the “polyreactivity (PSR sort gate)” value is listed as “low polyreactivity”.

Take “QVQLVESGGGLVQEGGSLRLSCAASGRTSGFNTMGWYRQAPRKERELVAAISFSGGSTYYADSVKGRFTISRDNAKNTVYLQMNSLNPEDTAVYYCNALYRYLYRSGDYWGHGTQVTVSS”: the “polyreactivity (PSR sort gate)” value is reported as “low polyreactivity”.

“QVQLVESGGGLVQEGGSLRLSCAASGSHFTRYVMGWYRPAPGKERELVAAITTGGSTYYADSVKGRFTISLDNAKNTVYLQMNSLKPEDTAVYYCAADRRTVSYKYNYWGQGTQVTVSS”: the “polyreactivity (PSR sort gate)” value was “high polyreactivity”.

As for “QVQLVESGGGLVQEGGSLRLSCAASGSIFGVYTMGWYRPEPGKERELVAAINWGGTSTYYADSVKGRFTISRDNAKNTVYLQMNSLKPEDTAVYYCNAERRRRYPYNYWGHGTQVTVSS”, the “polyreactivity (PSR sort gate)” value is reported as “high polyreactivity”.

Take “QVQLVESGGGLVQEGGSLRLSCAASGSIFKQYAMGWYRQAPGKERELVAAISYSGGTTYYADSVKGRFTISRDNAKNTVYLQMNSMKPEDTAVYYCAAEWWILSYRFDYWGQGTQVTVSS”: the “polyreactivity (PSR sort gate)” value was “high polyreactivity”.

In the case of “QVQLVESGGGLVQEGGSLRLSCAASGSIFNTYAMGRYRQAPGKEREMVAGITKTGSRTYYADSVKGRFTISRDNAKNTVYLQIHILKPEDTAVYYCNARIWPRSYRYDYWGQGTQVTVSS”, the “polyreactivity (PSR sort gate)” value is given as “high polyreactivity”.

Turning to “QVQLVESGGGLVQEGGSLRLSCAASGSIFSTYVMGWYRQAPGKERELVAAISRRGGSTYYADSVKGRFTISRDNAKNTVYLQMNSLKPEDTAVYYCAADGTVGRRDYWGQGTQVTVSS”, the “polyreactivity (PSR sort gate)” value was “high polyreactivity”.

With “QVQLVESGGGLVQEGGSLRLSCAASGSIFWPNAMGWYRQAPGKERELVAAISWGTGSTYYADSVKGRFTISRDNAKNTVYLQINSLKPEDSAVYYCNAEYVVAFGYQYGEYDYWGQGTQVTVSS”, the “polyreactivity (PSR sort gate)” value is “low polyreactivity”.

In the case of “QVQLVESGGGLVQEGGSLRLSCAASGSLFDVYAMGWYRQAPGKERELVAAISSSGSTYYADSVKGRFTISRDNAKNTVYLQMNSLKPEDTAVYYCAADQADDDDYYYWGQGTQVTVSS”, the “polyreactivity (PSR sort gate)” value was “low polyreactivity”.

In the case of “QVQLVESGGGLVQEGGSLRLSCAASGSTFRRNAMGWYRQAPGKERELVAAISTSGGTTYYADSVKGRFTISRDYAKNTVYLQMNSLKPEDTAVYYCAAGGKKRDDYWGQGTQVTVSS”, the “polyreactivity (PSR sort gate)” value was “high polyreactivity”.

Turning to “QVQLVESGGGLVQEGGSLRLSCAASGSTFSFYAMGWYRQAPGKERELVAAIDSGGRTKYADSVKGRFTISRDNAKNTVYLQMNSLKPEDSEVYYCGAVFRGWWLYDYWGKGTQVTVSS”, the “polyreactivity (PSR sort gate)” value is listed as “low polyreactivity”.

As to “QVQLVESGGGLVQEGGSLRLSCAASGSTFVHYDMGWYRQAPGKERELVAGITDTDNHELRRLCEGRFTISRDKAKNTVYLQMNSLKPEDTAVYYCNADDTYYPLGGITGYDYWGQGTQVTVSS”, the “polyreactivity (PSR sort gate)” value is reported as “low polyreactivity”.

Take “QVQLVESGGGLVQEGGSLRLSCAASGYIFKYYAMGWYRQAPGKERELVAAIRYSGGITYYADSVKGRFTISRDNAKNTVYLQMQSLKPEDTAVSYCAADYIITYRSGRREYVYWGQGTQVTVSS”: the “polyreactivity (PSR sort gate)” value is listed as “high polyreactivity”.

“QVQLVESGGGLVQEGGSLRLSCAASGYIFYEYAMGWYRQAPGKERELVAAISYSGGSTYYADSVKGRFTISRDNAKNTVYLQMNSLKPEDTAVYYCAAVGSVRYREGYDYWGQGSQVTVSS”: the “polyreactivity (PSR sort gate)” value was “high polyreactivity”.

In the case of “QVQLVESGGGLVQEGGSLRLSCAATGLTFVYYEMGWYRQAPGKERELVADITYIGTSTYYADSVKGRFTISLDNAKNTVYLQMNSLKPEDTEVYYCAAPFPIRSGESWRTDLGYDYWGQGTQVTVSS”, the “polyreactivity (PSR sort gate)” value was “low polyreactivity”.

On to “QVQLVESGGGLVQEGGSLRLSCADSGFTSCDNDMGWYRQAPGKERELVAAISRGGSTNYADSVKGRFTISRDNAKNTFYLQMNSLKPEDSEVYYCATAAVTPVWYDYWGKGTQVTVSS”, for which the “polyreactivity (PSR sort gate)” value is given as “low polyreactivity”.

Regarding “QVQLVESGGGLVQEGGSLRLSCASSGYTFPYYAMGWYRQAPGKERELVAAIRSGGGTNYADSVKGRFTISRDNAKNTVYLQMNSLKPEDTADYYCAKEWAGGLYDYWGQGTQVTVSS”, the “polyreactivity (PSR sort gate)” value is listed as “low polyreactivity”.

As to “QVQLVESGGGLVQEGGSLRLSCGASGSIFSCYAMGWYRQAPGKERELVAGITWSGGSTYYADSVKGRFTNSRDNAKNTVYLQMNSLKPEDTSVYYCAAKYYWYYSDSGIPLFDYWGQGTQVTVSS”, the “polyreactivity (PSR sort gate)” value is “low polyreactivity”.

Consider “QVQLVESGGGLVQEGGSLRLSCSASGRIFGSYAMGWNRPATGKERELVAAINSSGGRTYYADSVKGRFTISRDNAKNTVYLQMNSLKPDVTAVYYCNARRVYSQRYDYWGQGTQVTVSS”, for which the “polyreactivity (PSR sort gate)” value was “high polyreactivity”.

“QVQLVESGGGLVQEGGSLRLSSAASGRTFGTNPMGWYRQAPGKERELVAAISTRDGSTYYADSVKGRFSISRDNAKNTVYLQMNSLKPEDTAVYYCNAVVRYYDWGYLDYDYWGQGTQVTVSS”: the “polyreactivity (PSR sort gate)” value was “low polyreactivity”.

“QVQLVESGGGLVQEGGSLRLTCAASGRIFQRYAMGWYSPPPGKERELVAVITKRGGNTYYADSVKGRFTLSRDNAKNTVYLQMNSLKPEDTAVYYCATRSGRSTGDYWGQGTQVTVSS”: the “polyreactivity (PSR sort gate)” value is listed as “high polyreactivity”.

Take “QVQLVESGGGLVQEGGSLRLTCAASGRIFVYNAMGWYRQAPRKDRELVAAISWRGDGTYYADSVKGLFTISRDNAKITVYLQMNSLKPEDTAVYYCAADYVYYYHEYDYWGQGTQVTVSS”: the “polyreactivity (PSR sort gate)” value is “low polyreactivity”.
